In patent US20250376520A1 (SINGAPORE HEALTH SERVICES PTE, published 2025):

Target: human TRPM4 (transient receptor potential melastatin 4) channel, myc-tagged, expressed in HEK 293 cells (human, UniProt Q8TD43 1-1214)
Experiment: cell-based or functional assay

Sequence of human TRPM4 (transient receptor potential melastatin 4) channel, myc-tagged, expressed in HEK 293 cells (Q8TD43 whole entry): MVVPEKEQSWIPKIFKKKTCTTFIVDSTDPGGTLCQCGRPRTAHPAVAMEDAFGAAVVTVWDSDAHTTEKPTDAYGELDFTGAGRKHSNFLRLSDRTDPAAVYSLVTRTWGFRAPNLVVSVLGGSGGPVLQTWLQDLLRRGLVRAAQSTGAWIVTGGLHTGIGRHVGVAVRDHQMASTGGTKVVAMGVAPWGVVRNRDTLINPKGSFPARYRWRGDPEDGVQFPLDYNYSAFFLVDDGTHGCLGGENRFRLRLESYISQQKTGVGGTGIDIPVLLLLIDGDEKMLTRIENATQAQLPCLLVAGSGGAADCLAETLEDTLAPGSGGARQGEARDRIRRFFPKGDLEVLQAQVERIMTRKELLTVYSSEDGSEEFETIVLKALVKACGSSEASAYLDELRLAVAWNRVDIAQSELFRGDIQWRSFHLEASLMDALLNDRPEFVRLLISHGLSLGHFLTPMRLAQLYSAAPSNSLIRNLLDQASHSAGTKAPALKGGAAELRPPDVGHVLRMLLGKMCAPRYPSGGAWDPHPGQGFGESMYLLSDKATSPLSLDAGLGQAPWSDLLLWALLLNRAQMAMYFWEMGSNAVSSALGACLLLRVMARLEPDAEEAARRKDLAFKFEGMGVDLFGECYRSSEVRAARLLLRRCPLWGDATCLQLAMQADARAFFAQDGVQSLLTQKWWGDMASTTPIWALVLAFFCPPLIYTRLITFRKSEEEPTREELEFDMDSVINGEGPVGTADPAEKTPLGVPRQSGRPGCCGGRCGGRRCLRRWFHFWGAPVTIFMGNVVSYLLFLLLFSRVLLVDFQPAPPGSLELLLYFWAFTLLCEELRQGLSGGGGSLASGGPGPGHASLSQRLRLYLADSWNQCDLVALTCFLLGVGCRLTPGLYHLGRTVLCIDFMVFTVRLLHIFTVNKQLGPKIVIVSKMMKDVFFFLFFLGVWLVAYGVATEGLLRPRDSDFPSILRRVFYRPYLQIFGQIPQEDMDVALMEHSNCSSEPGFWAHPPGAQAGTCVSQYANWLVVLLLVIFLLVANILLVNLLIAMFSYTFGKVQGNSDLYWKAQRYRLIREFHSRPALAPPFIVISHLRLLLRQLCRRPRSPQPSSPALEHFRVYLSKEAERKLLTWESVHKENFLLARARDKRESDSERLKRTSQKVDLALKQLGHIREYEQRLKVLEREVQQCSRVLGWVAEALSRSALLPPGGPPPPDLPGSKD

B1: humanized anti-TRPM4 antibody clone A6 (VH2 + VL1), renamed M4H (antibody, human IgG1, kappa, V domains shown)
VH: QVQLQESGPGLVKPSQTLSLTCTVSGYSITSDYAWNWIRQHPGKGLEWMGYLSYSGVTSYNPSLKGRVTISRDTSKNQFSLKLSSVTAADTAVYYCARKGTYYRYEGSYWYFDVWGQGTTVTVSS
VL: DIQMTQSPSSLSASVGDRVTITCHANQNIDVWLSWYQQKPGKAPKLLIYKTSNLHTGVPSRFSGSGSGTDFTFTISSLQPEDIATYYCQQGQSYPLTFGGGTKLEIKR
  IC50, dose-dependent inhibition of hypoxia-induced TRPM4 current increase: 1.04 µg/mL
